Two proteins from publication PMC7573591 (Nature Communications, 2020) can be followed below.

Substrate in series [1]: C=C(C)CCO[P@@](=O)(O)OP(=O)(O)O
The series can be described thus: purified protein. To be noted: 10 μM FPP, 0.5 mM MgCl2, pH 7.5, 30 °C, 0.02% Triton X-100, labelled compound.

Substrate in series [2]: CC(C)=CCC/C(C)=C/CC/C(C)=C/CO[P@@](=O)(O)OP(=O)(O)O
In words: purified protein. The format is biochemical, Homo sapiens. To be noted: 100 μM IPP, 0.5 mM MgCl2, pH 7.5, 30 °C, 0.02% Triton X-100.

Series [3] deals with the molecule itself. The series can be described thus: cross-linking; about 8 µM purified shcis-PT with 0.005% glutaraldehyde, room temperature, 15 min; products analysed by SDS-PAGE.

B1: shcis-PT (soluble human cis-prenyltransferase complex, DHDDS-sNgBR) (Homo sapiens) (protein)
chain 1: MSWIKEGELSLWERFCANIIKAGPMPKHIAFIMDGNRRYAKKCQVERQEGHSQGFNKLAETLRWCLNLGILEVTVYAFSIENFKRSKSEVDGLMDLARQKFSRLMEEKEKLQKHGVCIRVLGDLHLLPLDLQELIAQAVQATKNYNKCFLNVCFAYTSRHEISNAVREMAWGVEQGLLDPSDISESLLDKCLYTNRSPHPDILIRTSGEVRLSDFLLWQTSHSCLVFQPVLWPEYTFWNLFEAILQFQMNHSVLQKARDMYAEERKRQQLERDQATVTEQLLREGLQASGDAQLRRTRLHKLSARREERVQGFLQALELKRADWLARLGTASA
chain 2: RGGSCLAAAHHRMRWRADGRSLEKLPVHMGLVITEVEQEPSFSDIASLVVWCMAVGISYISVYDHQGIFKRNNSRLMDEILKQQQELLGLDCSKYSPEFANSNDKDDQVLNCHLAVKVLSPEDGKADIVRAAQDFCQLVAQKQKRPTDLDVDTLASLLSSNGCPDPDLVLKFGPVDSTLGFLPWHIRLTEIVSLPSHLNISYEDFFSALRQYAACEQRLGK
notes: full-length DHDDS 1-333 plus cytosolic NgBR 73-293 (no transmembrane domain); co-expressed in E. coli; TRX fusions, His- and Strep-tags cut by TEV
Turning to B1, in the series “purified protein [1]”, the Km was 6.23 ± 1.50 µM and the kcat is 0.74 ± 0.02 s⁻¹. For the same protein, in “purified protein [2]”, the Michaelis constant (Km) amounted to 0.11 ± 0.01 µM and the kcat is 0.74 ± 0.02 s⁻¹.

B2: dehydrodolichyl diphosphate synthase (DHDDS), full-length human, residues 1-333 (enzyme, UniProt Q86SQ9 1-333, looked up)
chain: MSWIKEGELSLWERFCANIIKAGPMPKHIAFIMDGNRRYAKKCQVERQEGHSQGFNKLAETLRWCLNLGILEVTVYAFSIENFKRSKSEVDGLMDLARQKFSRLMEEKEKLQKHGVCIRVLGDLHLLPLDLQELIAQAVQATKNYNKCFLNVCFAYTSRHEISNAVREMAWGVEQGLLDPSDISESLLDKCLYTNRSPHPDILIRTSGEVRLSDFLLWQTSHSCLVFQPVLWPEYTFWNLFEAILQFQMNHSVLQKARDMYAEERKRQQLERDQATVTEQLLREGLQASGDAQLRRTRLHKLSARREERVQGFLQALELKRADWLARLGTASA
notes: human dehydrodolichyl diphosphate synthase (DHDDS), full length, residues 1-333, UniProt Q86SQ9; Cloned into pET-32b as a TRX fusion with a TEV site; tags and TRX removed by TEV protease before the final size-exclusion step; also called DHDD synthase; catalytic subunit of hcis-PT / shcis-PT / xcis-PT
As for B2, the binding result in series [3] is “binds”.

As a reminder, the Km is the concentration of substrate that gives half-maximal velocity. What is called kcat is the number of substrate molecules converted per active site and unit of time at saturation.
